# Measured values published in article PMC9365917, “Modulation of osteogenic differentiation by Escherichia coli-derived recombinant bone morphogenetic protein-2” (AMB Express, 2022).
# T1: BMP receptor type 2 (UniProt Q13873 27-150)
# T1 construct: BMP receptor type 2 (BMPR2); No catalogue number is printed; also called BMPR2; source: bought: Thermo Fisher Scientific Co
# T1 sequence (looked up): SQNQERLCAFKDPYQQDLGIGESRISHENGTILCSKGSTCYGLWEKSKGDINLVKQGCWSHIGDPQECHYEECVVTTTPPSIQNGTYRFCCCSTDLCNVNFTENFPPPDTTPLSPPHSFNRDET
# B1: Chinese hamster ovary cell-derived recombinant human bone morphogenetic protein-2 (ligand, UniProt P12643 283-396, looked up)
# chain: QAKHKQRKRLKSSCKRHPLYVDFSDVGWNDWIVAPPGYHAFYCHGECPFPLADHLNSTNHAIVQTLVNSVNSKIPKACCVPTELSAISMLYLDENEKVVLKNYQDMVVEGCGCR
# modifications: N-glycan (position not given)
# notes: Bone morphogenetic protein 2 (BMP-2), human, CHO cell-derived, glycosylated; also called C-rhBMP-2; CHO cell-derived rhBMP-2; source: CHO cell-derived; bought: National Institute for Biological Standards and Control
# B2: Escherichia coli-derived recombinant human bone morphogenetic protein-2 (ligand, UniProt P12643 283-396, looked up)
# chain: B1 chain
# notes: Bone morphogenetic protein 2 (BMP-2), human; no glycans; Not glycosylated (made in E. coli); an added N-terminal methionine is not spoken of; also called E-rhBMP-2; E. coli-derived rhBMP-2; source: E. coli-derived; provided by Daewoong Pharmaceutical Co., Ltd
# B3: BMP receptor type 1B (receptor, UniProt O00238 14-126, looked up)
# chain: KKEDGESTAPTPRPKVLRCKCHHHCPEDSVNNICSTDGYCFTMIEEDDSGLPVVTSGCLGLEGSDFQCRDTPIPHQRRSIECCTERNECNKDLHPTLPPLKNRDFVDGPIHHR
# notes: BMP receptor type 1B (BMPR1B); No catalogue number is printed; also called BMPR1B; source: bought: Thermo Fisher Scientific Co
# How the values were obtained:
# Test in all cases: SPR; Biacore T200; rhBMP-2 (ligand) immobilised by EDC/NHS coupling, target level 500 RU, in 10 mM sodium acetate pH 6.0; receptors as analytes, 10-2000 nM, 30 µL/min, 120 s association and 120 s dissociation; 1:1 binding model
# Details in all cases: both partners purified
# BMP receptor type 2 = molecular target: T1, BMP receptor type 2
# [1] = molecular target: B1
# [2] = molecular target: B2
Kd (BMP receptor type 2),Kd [1],kon [1],Kd [2],kon [2],Binder
141 nM,,,,,B1
140 nM,,,,,B2
,74.3 nM,3470 M⁻¹ s⁻¹,194 nM,1960 M⁻¹ s⁻¹,B3
